Laboratory results taken from patent publication US20220242939A1 (BIOARCTIC, published 2022).
Non-standard residues stand in square brackets, D forms with d. No end group written: not given here. Ahx = NCCCCCC(=O)O

T1: A199 N-terminal neo-epitope peptide AGQPLQE-Acp-C (SEQ ID NO:55) conjugated to BSA (human, not fully specified (residue 9); printed as AGQPLQE-Acp-C; also: C-terminal Cys conjugated to BSA carrier)
T1 construct: BSA carrier
T1 peptide: AGQPLQE[Ahx]C

T2: A199 N-terminal neo-epitope peptide AGQPLQ-Acp-C (SEQ ID NO:51) conjugated to BSA (human, not fully specified (residue 8); printed as AGQPLQ-Acp-C; also: C-terminal Cys conjugated to BSA carrier)
T2 construct: BSA carrier; also called A199-BSA peptide
T2 peptide: AGQPLQ[Ahx]C

T3: L198 N-terminal neo-epitope peptide LAGQPL-Acp-C (SEQ ID NO:52) conjugated to BSA (human, not fully specified (residue 8); printed as LAGQPL-Acp-C; also: C-terminal Cys conjugated to BSA carrier)
T3 construct: BSA carrier; also called L198-BSA peptide
T3 peptide: LAGQPL[Ahx]C


How the values were obtained:
[1] = biological target: T4, recombinant C-terminal ApoE fragment A199-HIS (ApoE-A199-H299-10xHIS) (human, UniProt P02649 217-317); assay: SPR (Biacore 8K), A199-HIS amine-coupled on CM5, antibody as analyte, bivalent analyte fit (kd1)
T4 construct: also called A199-HIS fragment

[2] = biological target: T1, A199 N-terminal neo-epitope peptide …; assay: direct ELISA after limiting dilution
[3] = biological target: T2, A199 N-terminal neo-epitope peptide …; assay: direct ELISA, A199-BSA peptide coated at 1 µg/ml
Experimental: (§1) Selectivity evaluation of purified monoclonal antibodies by direct ELISA: The direct ELISA described below was used to evaluate the binding selectivity of the purified monoclonal antibodies produced in Example 17.
(§2) The screening was performed according to standard ELISA protocols. Briefly, 1 μg/ml solutions of BSA-conjugated neo-epitope peptides and negative control peptide, and 0.1 μM recombinant C-terminal ApoE fragment and full-length ApoE (Abcam, cat. no. ab50243) were prepared by dilution in PBS. 50 μl/well were added to an ELISA half-area 96 well microtiter plate, and the plate was sealed with adhesive sealer and incubated over night at 4° C. After discarding the solution, the plates were blocked with 150 μl/well of protein-free blocking solution (Pierce) for 1 h at room temperature with shake (600-900 rpm). The plates were washed four times with washing buffer containing 0.28 mM NaH₂PO₄, 2.5 mM Na₂HPO₄, 150 mM NaCl, 0.1% TWEEN®-20 and 0.0075% Kathon CG. Purified monoclonal antibodies of interest were 3-fold serially diluted with a starting dilution at 3 μg/ml (mixed 1:2 with dilution buffer (PBS with 0.1% BSA and 0.05% TWEEN®-20)). An anti-ApoE C-terminal antibody was used as a reference antibody (ApoE E-8 mouse monoclonal, Santa Cruz Biotechnology, cat. no. sc-393302). 50 μl/well were added into the ELISA plates and incubated for 2 h at room temperature with shake (600-900 rpm). The plates were washed four times as described previously. […] After another wash (as described previously), 50 μl/well of K-Blue® aqueous substrate (Neogen) were added, and the reaction was stopped after 5-15 min with 50 μl/well of 0.5 M H₂SO₄. The optical density at 450 nm was read using an ELISA reader (Tecan).

[4] = biological target: T5, full-length ApoE in human brain extract from Alzheimer's disease patients (human, UniProt P02649 19-317); assay: Western blot of AD brain RIPA 2% SDS extract; anti-A199 antibody at 2 ug/ml as primary antibody
T5 construct: mature; Endogenous protein on Western blot or in solution (IP); also called ApoE full-length protein
Experimental: RIPA 2% SDS brain extract containing approximately 60 μg total protein was mixed with 2×Laemmli sample buffer, boiled for 5 min at 95° C. and loaded onto SDS-PAGE gels (Bolt™ 12% Bis-Tris Plus 10 well, Thermo Fisher, cat. no. NW00120BOX). Gels were run for 30-40 min at 180 V, after which proteins were transferred from the gels onto nitrocellulose membranes using the Trans-Blot® Turbo™ system (Bio-Rad). […] Membranes were washed and incubated for 1 h at room temperature with the detection antibody anti-mouse-800CW (LI-COR, cat. no. 925-32210) diluted 1:25000 in Intercept® PBS Blocking Buffer (LI-COR) with 0.1% TWEEN®-20. Membranes were washed and images acquired using Odyssey® FC (LI-COR).

[5] = biological target: T4, recombinant C-terminal ApoE fragment …; assay: direct ELISA, A199-HIS coated at 0.1 µM
Experimental: as §1, §2

[6] = biological target: T4, recombinant C-terminal ApoE fragment …; assay: SPR (Biacore 8K), A199-HIS amine-coupled on CM5, antibody as analyte, bivalent analyte fit (KD1)
[7] = biological target: T4, recombinant C-terminal ApoE fragment …; assay: SPR (Biacore 8K), A199-HIS amine-coupled on CM5, antibody as analyte, bivalent analyte fit (ka1)
[8] = biological target: T6, recombinant full-length ApoE4 (aa 1-299; SEQ ID NO:45; Abcam cat. no. ab50243) (human, UniProt P02649 19-317); assay: direct ELISA; proteins coated at 0.1 uM, BSA peptides at 1 ug/ml; antibody in 3-fold dilutions from 3000 ng/ml; blank reduced OD 450 nm
T6 construct: Bought protein; also called recombinant ApoE4 full-length protein
Experimental: as §1, §2

[9] = biological target: T3, L198 N-terminal neo-epitope peptide …; assay: as above
Experimental: as §1, §2

[10] = biological target: 28F2, recombinant IgG2c antibody; assay: inhibition ELISA: antigen in solution varied, antibody 28F2 at 0.05 µg/ml, plate coated with G200-BSA peptide
Experimental: […] of each synthetic ApoE peptide, recombinant C-terminal ApoE fragment G200-HIS and full-length ApoE4 were prepared by 4-fold dilution starting from 1000 ng/ml in 96 well storage plates (30 μl final volume). Each recombinant antibody to be tested was added (30 μl) to the serial dilutions of each of the synthetic ApoE peptides, G200-HIS or full-length ApoE4 at a final concentration of 0.05 μg/ml per well. Samples were pre-incubated for 45 min at room temperature with shaking (900 rpm).
(§3) The pre-incubated samples were transferred (50 μl/well) to the blocked ELISA plates, and plates were incubated for 25 min at room temperature without shaking. Plates were washed as described above. Alkaline phosphatase conjugated anti-mouse IgG detection antibody (Mabtech, cat. no. 3310-4) was diluted 1:1000 and added to each plate (50 μl/well). The plate was sealed and incubated with shaking (900 rpm) for 45 min at room temperature and subsequently washed as described above. Alkaline phosphatase substrate (50 μl/well) was added to the plate and the optical density was read every 15 min at a wavelength of 405 nm for up to 120 min. The IC50 values were determined from a log inhibitor concentration response curve (FIG. 17).

[11] = biological target: 17G4, recombinant IgG2c antibody; assay: inhibition ELISA: antigen in solution varied, antibody 17G4 at 0.05 µg/ml, plate coated with G200-BSA peptide
Experimental: as §3

[12] = biological target: T7, 7B10, recombinant IgG2c antibody; assay: inhibition ELISA: antigen in solution varied, antibody 7B10 at 0.05 µg/ml, plate coated with G200-BSA peptide
T7 construct: also called 7610
Experimental: as §3

[13] = biological target: 7C7, recombinant IgG2c antibody; assay: inhibition ELISA: antigen in solution varied, antibody 7C7 at 0.05 µg/ml, plate coated with G200-BSA peptide
Experimental: as §3

[14] = biological target: 23D5, recombinant IgG2c antibody; assay: inhibition ELISA: antigen in solution varied, antibody 23D5 at 0.05 µg/ml, plate coated with G200-BSA peptide
Experimental: as §3

T6 sequence (P02649 19-317 C130R limits assumed): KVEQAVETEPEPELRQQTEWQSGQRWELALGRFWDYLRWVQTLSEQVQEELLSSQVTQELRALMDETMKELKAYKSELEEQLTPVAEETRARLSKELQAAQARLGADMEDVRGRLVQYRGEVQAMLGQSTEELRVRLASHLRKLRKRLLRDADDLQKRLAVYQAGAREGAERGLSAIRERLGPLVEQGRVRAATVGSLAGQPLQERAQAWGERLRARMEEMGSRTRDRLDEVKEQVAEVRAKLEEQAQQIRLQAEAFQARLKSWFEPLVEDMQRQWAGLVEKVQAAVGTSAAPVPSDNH
T5 sequence (P02649 19-317): as the sequence (P02649 19-317 C130R limits assumed) above, with R112C counted along it
Sequence of 17G4, recombinant IgG2c antibody (VH, as listed by the source): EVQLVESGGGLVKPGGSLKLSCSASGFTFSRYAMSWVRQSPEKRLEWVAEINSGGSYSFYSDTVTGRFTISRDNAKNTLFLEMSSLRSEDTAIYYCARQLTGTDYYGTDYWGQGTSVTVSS
Sequence of 28F2, recombinant IgG2c antibody (VH, as listed by the source): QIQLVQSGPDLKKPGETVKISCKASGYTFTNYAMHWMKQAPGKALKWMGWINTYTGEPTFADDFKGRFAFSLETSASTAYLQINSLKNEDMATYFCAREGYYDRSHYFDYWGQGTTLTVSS
Sequence of 23D5, recombinant IgG2c antibody (VH, as listed by the source): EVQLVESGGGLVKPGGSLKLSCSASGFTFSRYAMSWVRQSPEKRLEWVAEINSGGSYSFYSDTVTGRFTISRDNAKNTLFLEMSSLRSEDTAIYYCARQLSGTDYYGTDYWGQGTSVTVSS
T7 sequence (VH, as listed by the source): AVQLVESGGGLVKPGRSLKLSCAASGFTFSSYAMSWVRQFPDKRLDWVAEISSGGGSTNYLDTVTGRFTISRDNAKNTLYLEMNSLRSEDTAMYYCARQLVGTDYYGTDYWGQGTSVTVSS
Sequence of 7C7, recombinant IgG2c antibody (VH, as listed by the source, chain 1 of 2): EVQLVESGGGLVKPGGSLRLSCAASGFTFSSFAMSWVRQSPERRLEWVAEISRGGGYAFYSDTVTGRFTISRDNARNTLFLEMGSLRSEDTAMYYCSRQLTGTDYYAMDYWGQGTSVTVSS
Sequence of 7C7, recombinant IgG2c antibody (VL, as listed by the source, chain 2 of 2): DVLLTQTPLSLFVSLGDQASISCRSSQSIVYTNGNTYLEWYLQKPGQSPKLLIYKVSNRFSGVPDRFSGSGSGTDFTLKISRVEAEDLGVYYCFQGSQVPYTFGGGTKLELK

Row | Binder | koff [1] | binding result [2] | EC50 [3] | binding result [4] | EC50 [5] | Kd [6] | kon [7] | binding result [8] | binding result [9] | IC50 [10] | IC50 [11] | IC50 [12] | IC50 [13] | IC50 [14]
1 | 63F6, monoclonal anti-A199 antibody (antibody, IgG2b, V domains shown) VH: QVQLQQPGTELVKPGASVKLSCKASGYTFTNYWMHWVKQRPGQGLEWIGNINPRNGGTNYNEKFKSKATLTVDKSSSTDYMQLSSLTSEDSAVYYCARGLYDYDFDYWGQGTTLTVSS VL: DVLMTQTPLSLPVSLGDQASISCRSSQSIVHGNGNTYLQWFLQKPGQSPKLLIYKVSSRFSGVPDRFSGSGSGTDFTLKISRVEAEDLGVYYCFQGSHVPFTFGSGTKLEIK | 0.0207 s⁻¹ | binds | 3.8 ng/mL | no binding (tested: 2 ug/ml (text)) | 1.8 ng/mL | 137 nM | 150000 M⁻¹ s⁻¹ | no binding (tested: 3000 ng/ml) | no binding (tested: 3000 ng/ml) |  |  |  |  | 
2 | 67G3, monoclonal anti-A199 antibody (antibody, IgG2b, V domains shown) VH: QVQLQQPGTELVKPGASVKLSCKASGYTFTRYWLHWVKQRPGQGLEWIGNINPTNGGANYNEKFKNKATLTVDKSSSTAYMQLSSLTSEDSAVYYCSRGAYDYDCDYWGQGTTLTVSS VL: DVLMTQTPLSLPVSLGDQASISCRSSQRIVHSNGNIYLQWYLQKPGQSPKLLIYKVSNRFSGVPDRFSGSGSGTDFTLKISRVEAEDLGVYYCFQGSHVPYTFGGGTKLEIK | 0.0172 s⁻¹ | binds | 4.4 ng/mL | no binding (tested: 2 ug/ml (text)) | 3.5 ng/mL | 83 nM | 180000 M⁻¹ s⁻¹ | no binding (tested: 3000 ng/ml) |  |  |  |  |  | 
3 | recombinant C-terminal ApoE fragment G200-HIS (ApoE-G200-H299-10xHIS) (other, also called G200-HIS fragment) GQPLQERAQAWGERLRARMEEMGSRTRDRLDEVKEQVAEVRAKLEEQAQQIRLQAEAFQARLKSWFEPLVEDMQRQWAGLVEKVQAAVGTSAAPVPSDNHHHHHHHHHHH |  |  |  |  |  |  |  |  |  | 2.4 nM | 3 nM | 2.8 nM | 2.8 nM | 2.4 nM
